This passage reports reverse-splicing fitness results from the RNAGym collection of RNA variant scans (doi:10.1093/molbev/msab373).

B1: Azoarcus group I ribozyme (parent)
chain: GUGCCUUGCGCCGGGAAACCACGCAAGGGAUGGUGUCAAAUUCGGCGAAACCUAAGCGCCCGCCCGGGCGUAUGGCAACGCCGAGCCAAGCUUCGGCGCCUGCGCCGAUGAAGGUGUAGAGACUAGACGGCACCCACCUAAGGCAAACGCUAUGGUGAAGGCAUAGUCCAGGGAGUGGCGAAAGUCACACAAACCGG

Variants of B1 are the subject of this data set. The data set is described as follows: reverse-splicing fitness (ratio to wild type); higher = more active; in vitro selection; Mg2+ level not given. The gist of the method:
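An in vitro group I ribozyme library with randomized positions was T7-transcribed and gel-purified. In triplicate, 10 pmol RNA in EPPS pH 7.5 was reacted with 50 pmoles of a 30-nt RNA substrate for 1 h at 37 °C across several added MgCl2 levels (1–48 mM), then stopped with EDTA. Products were reverse transcribed from a substrate-complementary primer, PCR-amplified and sequenced (HiSeq 4000). Fitness is a variant's read proportion after selection over that before, normalised to wild type.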
Turning to GUGCCUUGCGCCGGGAAACCACGCAAGGGAUGGUGUCAAAUUCGGCGAAACCUAAGCGCCCGCCCGGGCGUAUGGCAACGCCGAGCCAAGCUUCGGCGCCUGCGCCGAUGAAGGUGUAGAGACUAGACGGCACCCACCUAAGGCAAACGGUAUGGUGAAGGCAUAGUCUAGGGAGUGGCGAAAGUCACACAAACCGG [C150G C169U], the reverse-splicing fitness was 0.0492.
Turning to GUGCCUUGCGCCGGGAAACCACGCAAGGGAUGGUGUCAAAUUCGGCGAAACCUAAGCGCCCGCCCGGGCGUAUGGCAACGCCGAGCCAAGCUUCGGCGCCUGCGCCGAUGAAGGUGUAGAGACUAGACGGCACCCACCUAAGGCAAACGGUAUGGUGAAGGCAUAGUCGAGGGAGUGGCGAAAGUCACACAAACCGG [C150G C169G], the reverse-splicing fitness came out at 0.0309.
In the case of GUGCCUUGCGCCGGGAAACCACGCAAGGGAUGGUGUCAAAUUCGGCGAAACCUAAGCGCCCGCCCGGGCGUAUGGCAACGCCGAGCCAAGCUUCGGCGCCUGCGCCGAUGAAGGUGUAGAGACUAGACGGCACCCACCUAAGGCAAACGGUAUGGUGAAGGCAUAGUCGAGGGAGGGGCGAAAGUCACACAAACCGG [C150G C169G U176G], the reverse-splicing fitness was found to be 0.0051.
GUGCCUUGCGCCGGGAAACCACGCAAGGGAUGGUGUCAAAUUCGGCGAAACCUAAGCGCCCGCCCGGGCGUAUGGCAACGCCGAGCCAAGCUUCGGCGCCUGCGCCGAUGAAGGUGUAGAGACUAGACGGCACCCACCUAAGGCAAACGGUAUGGUGAAGGCAUAGUCGAGGGAGCGGCGAAAGUCACACAAACCGG [C150G C169G U176C]: the reverse-splicing fitness amounted to 0.0077.
For GUGCCUUGCGCCGGGAAACCACGCAAGGGAUGGUGUCAAAUUCGGCGAAACCUAAGCGCCCGCCCGGGCGUAUGGCAACGCCGAGCCAAGCUUCGGCGCCUGCGCCGAUGAAGGUGUAGAGACUAGACGGCACCCACCUAAGGCAAACGGUAUGGUGAAGGCAUAGUCGAGGGAGAGGCGAAAGUCACACAAACCGG [C150G C169G U176A], the reverse-splicing fitness is 0.00867.
Consider GUGCCUUGCGCCGGGAAACCACGCAAGGGAUGGUGUCAAAUUCGGCGAAACCUAAGCGCCCGCCCGGGCGUAUGGCAACGCCGAGCCAAGCUUCGGCGCCUGCGCCGAUGAAGGUGUAGAGACUAGACGGCACCCACCUAAGGCAAACGAUAUGGUGAAGGCAUAGUCCAGGGAGCGGCGAAAGUCACACAAACCGG [C150A U176C], for which the reverse-splicing fitness was 0.398.
The figure for GUGCCUUGCGCCGGGAAACCACGCAAGGGAUGGUGUCAAAUUCGGCGAAACCUAAGCGCCCGCCCGGGCGUAUGGCAACGCCGAGCCAAGCUUCGGCGCCUGCGCCGAUGAAGGUGUAGAGACUAGACGGCACCCACCUAAGGCAAACGAUAUGGUGAAGGCAUAGUCCAGGGAGAGGCGAAAGUCACACAAACCGG [C150A U176A] is 0.406; for GUGCCUUGCGCCGGGAAACCACGCAAGGGAUGGUGUCAAAUUCGGCGAAACCUAAGCGCCCGCCCGGGCGUAUGGCAACGCCGAGCCAAGCUUCGGCGCCUGCGCCGAUGAAGGUGUAGAGACUAGACGGCACCCACCUAAGGCAAACGAUAUGGUGAAGGCAUAGUCCAGGGAGGGGCGAAAGUCACACAAACCGG [C150A U176G] it is 0.185; for GUGCCUUGCGCCGGGAAACCACGCAAGGGAUGGUGUCAAAUUCGGCGAAACCUAAGCGCCCGCCCGGGCGUAUGGCAACGCCGAGCCAAGCUUCGGCGCCUGCGCCGAUGAAGGUGUAGAGACUAGACGGCACCCACCUAAGGCAAACGAUAUGGUGAAGGCAUAGUCAAGGGAGGGGCGAAAGUCACACAAACCGG [C150A C169A U176G] it is 0.00665.
As to GUGCCUUGCGCCGGGAAACCACGCAAGGGAUGGUGUCAAAUUCGGCGAAACCUAAGCGCCCGCCCGGGCGUAUGGCAACGCCGAGCCAAGCUUCGGCGCCUGCGCCGAUGAAGGUGUAGAGACUAGACGGCACCCACCUAAGGCAAACGAUAUGGUGAAGGCAUAGUCAAGGGAGCGGCGAAAGUCACACAAACCGG [C150A C169A U176C], the reverse-splicing fitness is 0.0227.
Regarding GUGCCUUGCGCCGGGAAACCACGCAAGGGAUGGUGUCAAAUUCGGCGAAACCUAAGCGCCCGCCCGGGCGUAUGGCAACGCCGAGCCAAGCUUCGGCGCCUGCGCCGAUGAAGGUGUAGAGACUAGACGGCACCCACCUAAGGCAAACGAUAUGGUGAAGGCAUAGUCAAGGGAGAGGCGAAAGUCACACAAACCGG [C150A C169A U176A], the reverse-splicing fitness turned out to be 0.0214.
As for GUGCCUUGCGCCGGGAAACCACGCAAGGGAUGGUGUCAAAUUCGGCGAAACCUAAGCGCCCGCCCGGGCGUAUGGCAACGCCGAGCCAAGCUUCGGCGCCUGCGCCGAUGAAGGUGUAGAGACUAGACGGCACCCACCUAAGGCUAACGCUAUGGUGAAGGCAUAGUCUAGGGAGGGGCGAAAGUCACACAAACCGG [A145U C169U U176G], the reverse-splicing fitness was 0.013.
With GUGCCUUGCGCCGGGAAACCACGCAAGGGAUGGUGUCAAAUUCGGCGAAACCUAAGCGCCCGCCCGGGCGUAUGGCAACGCCGAGCCAAGCUUCGGCGCCUGCGCCGAUGAAGGUGUAGAGACUAGACGGCACCCACCUAAGGCAAACGAUAUGGUGAAGGCAUAGUCGAGGGAGAGGCGAAAGUCACACAAACCGG [C150A C169G U176A], the reverse-splicing fitness came to 0.026.
Turning to GUGCCUUGCGCCGGGAAACCACGCAAGGGAUGGUGUCAAAUUCGGCGAAACCUAAGCGCCCGCCCGGGCGUAUGGCAACGCCGAGCCAAGCUUCGGCGCCUGCGCCGAUGAAGGUGUAGAGACUAGACGGCACCCACCUAAGGCAAACGAUAUGGUGAAGGCAUAGUCGAGGGAGGGGCGAAAGUCACACAAACCGG [C150A C169G U176G], the reverse-splicing fitness is 0.00565.
Consider GUGCCUUGCGCCGGGAAACCACGCAAGGGAUGGUGUCAAAUUCGGCGAAACCUAAGCGCCCGCCCGGGCGUAUGGCAACGCCGAGCCAAGCUUCGGCGCCUGCGCCGAUGAAGGUGUAGAGACUAGACGGCACCCACCUAAGGCAAACGAUAUGGUGAAGGCAUAGUCGAGGGAGCGGCGAAAGUCACACAAACCGG [C150A C169G U176C], for which the reverse-splicing fitness was 0.0327.
